Results reported in publication PMC3354533.

Molecular target: endogenous calcineurin A (CaNA) in mouse primary cortical neurons (mouse (endogenous in primary cortical neurons)) (UniProt P63328)
Assay: FRET or BRET

| Substance | 565/522 ratio, spine, AD brain SEC fraction 60 min | FRET Ratio increase, cytoplasm, 6 hours of TgCM | FRET Ratio increase, nucleus, 6 hours of TgCM | peak of the FRET distribution in spines, 15 min of TgCM | peak of the FRET distribution in spines, 30 min of TgCM | peak of the FRET distribution in spines, 60 min of TgCM |
| --- | --- | --- | --- | --- | --- | --- |
| endogenous calcineurin B subunit (CaNB) in mouse primary cortical neurons (from UniProt Q63810 1-170) (natural protein) | 0.451 | 0.51 | 0.49 | 0.45 | 0.48 | 0.48 |
| endogenous calmodulin (CaM) in mouse primary cortical neurons (from UniProt P0DP26 1-149) (natural protein) | – | – | – | 0.38 | 0.39 | 0.4 |
